From PMC5673894
Where a chain is given by its changes, count along the chain named. Numbers in names are those of the source.

B1: wild-type XPC-GFP fusion, Q01831 W690S (protein)
chain: MARKRAAGGEPRGRELRSQKSKAKSKARREEEEEDAFEDEKPPKKSLLSKVSQGKRKRGCSHPGGSADGPAKKKVAKVTVKSENLKVIKDEALSDGDDLRDFPSDLKKAHHLKRGATMNEDSNEEEEESENDWEEVEELSEPVLGDVRESTAFSRSLLPVKPVEIEIETPEQAKTRERSEKIKLEFETYLRRAMKRFNKGVHEDTHKVHLLCLLANGFYRNNICSQPDLHAIGLSIIPARFTRVLPRDVDTYYLSNLVKWFIGTFTVNAELSASEQDNLQTTLERRFAIYSARDDEELVHIFLLILRALQLLTRLVLSLQPIPLKSATAKGKKPSKERLTADPGGSSETSSQVLENHTKPKTSKGTKQEETFAKGTCRPSAKGKRNKGGRKKRSKPSSSEEDEGPGDKQEKATQRRPHGRERRVASRVSYKEESGSDEAGSGSDFELSSGEASDPSDEDSEPGPPKQRKAPAPQRTKAGSKSASRTHRGSHRKDPSLPAASSSSSSSKRGKKMCSDGEKAEKRSIAGIDQWLEVFCEQEEKWVCVDCVHGVVGQPLTCYKYATKPMTYVVGIDSDGWVRDVTQRYDPVWMTVTRKCRVDAEWWAETLRPYQSPFMDREKKEDLEFQAKHMDQPLPTAIGLYKNHPLYALKRHLLKYEAIYPETAAILGYCRGEAVYSRDCVHTLHSRDTSLKKARVVRLGEVPYKMVKGFSNRARKARLAEPQLREENDLGLFGYWQTEEYQPPVAVDGKVPRNEFGNVYLFLPSMMPIGCVQLNLPNLHRVARKLDIDCVQAITGFDFHGGYSHPVTDGYIVCEEFKDVLLTAWENEQAVIERKEKEKKEKRALGNWKLLAKGLLIRERLKRRYGPKSEAAAPHTDAGGGLSSDEEEGTSSQAEAARILAASWPQNREDEEKQKLKGGPKKTKREKKAAASHLFPFEQL
B2: wild-type XPC-GFP fusion, Q01831 D748K (protein)
chain: B1 chain with S690W, D748K
B3: wild-type XPC-GFP fusion, Q01831 E755K (protein)
chain: B1 chain with S690W, E755K
B4: wild-type XPC-GFP fusion, Q01831 D748K; E755K (protein)
chain: B1 chain with S690W, D748K, E755K

Target: recombinant histone H3K4me3, P68431
Assay: co-immunoprecipitation with anti-H3K4me3 antibodies, quantified anti-GFP immunoblot
Conditions: chain shown with the change, 0.3-M NaCl extracts of XP-C fibroblasts, recombinant H3K4me3 2 µg, n = 3, read off a plot

Binder | percent of parent [% WT] | other results
B1 | 72 | –
B2 | – | percent of parent (P = 0.0087 vs WT): 55 % WT
B3 | 85 | –
B4 | – | percent of parent (P = 0.0147 vs WT): 46 % WT
